Legend:
mouse serum albumin = biological target: T1, mouse serum albumin (mouse, UniProt P07724 25-608, biotinylated); experiment: phage ELISA, MSA-biotin on streptavidin plate
T1 construct: also called MSA; MSA-biotin

rat serum albumin = biological target: T2, rat serum albumin (rat, UniProt P02770 25-608, biotinylated); experiment: phage ELISA, RSA-biotin on streptavidin plate
T2 construct: also called RSA; RSA-biotin

control CD19 protein = biological target: T3, control CD19 protein (UniProt P15391 20-291, limits assumed); experiment: phage ELISA
T3 sequence (looked up): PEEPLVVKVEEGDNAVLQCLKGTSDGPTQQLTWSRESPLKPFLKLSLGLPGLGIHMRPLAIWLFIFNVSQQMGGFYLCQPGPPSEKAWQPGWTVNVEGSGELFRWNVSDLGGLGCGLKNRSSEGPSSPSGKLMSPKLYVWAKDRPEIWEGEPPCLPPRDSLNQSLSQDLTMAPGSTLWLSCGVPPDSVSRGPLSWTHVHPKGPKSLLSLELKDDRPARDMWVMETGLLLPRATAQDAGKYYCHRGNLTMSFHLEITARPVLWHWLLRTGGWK

[1] = biological target: T4, streptavidin (streptavidin coated plate, wells without immobilized CD5) (UniProt P22629 37-163, limits assumed); experiment: phage ELISA, streptavidin coated wells without immobilized CD5
T4 construct: also called control streptavidin

[2] = biological target: T5, CD5 expressed on the cell surface (transfected HEK293T cells; Raji cells ectopically expressing wild type CD5) (UniProt P06127 25-495, limits assumed); experiment: cell-based or functional assay
T5 sequence (looked up): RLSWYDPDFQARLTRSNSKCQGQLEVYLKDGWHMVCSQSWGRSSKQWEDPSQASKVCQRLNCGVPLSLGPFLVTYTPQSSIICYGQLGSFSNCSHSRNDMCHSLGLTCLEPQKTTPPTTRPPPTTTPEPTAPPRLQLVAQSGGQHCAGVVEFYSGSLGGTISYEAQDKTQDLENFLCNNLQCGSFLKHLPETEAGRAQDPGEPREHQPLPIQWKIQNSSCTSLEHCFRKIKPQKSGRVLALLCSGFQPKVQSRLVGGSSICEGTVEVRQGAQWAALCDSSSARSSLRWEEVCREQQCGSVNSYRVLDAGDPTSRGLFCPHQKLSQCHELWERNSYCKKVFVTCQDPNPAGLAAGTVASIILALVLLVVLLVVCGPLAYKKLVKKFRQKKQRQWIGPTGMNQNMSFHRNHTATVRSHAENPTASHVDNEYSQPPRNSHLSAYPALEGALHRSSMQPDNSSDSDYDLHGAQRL

T1 sequence (P07724 25-608 limits assumed): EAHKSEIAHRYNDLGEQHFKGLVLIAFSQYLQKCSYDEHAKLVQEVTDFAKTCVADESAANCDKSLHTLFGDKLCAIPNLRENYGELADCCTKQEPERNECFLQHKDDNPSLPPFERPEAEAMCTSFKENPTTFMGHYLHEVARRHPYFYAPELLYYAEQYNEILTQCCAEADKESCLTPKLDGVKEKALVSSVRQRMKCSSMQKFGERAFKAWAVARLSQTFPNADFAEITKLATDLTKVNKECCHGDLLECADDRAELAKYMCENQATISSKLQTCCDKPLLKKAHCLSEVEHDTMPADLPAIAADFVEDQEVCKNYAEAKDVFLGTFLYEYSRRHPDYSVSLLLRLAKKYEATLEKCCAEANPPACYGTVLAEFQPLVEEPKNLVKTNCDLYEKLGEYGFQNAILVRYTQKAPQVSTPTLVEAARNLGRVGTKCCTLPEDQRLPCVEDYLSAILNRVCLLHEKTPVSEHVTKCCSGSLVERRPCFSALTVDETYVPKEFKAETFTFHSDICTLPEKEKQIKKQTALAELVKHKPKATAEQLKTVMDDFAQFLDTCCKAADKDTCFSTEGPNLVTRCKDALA
T2 sequence (P02770 25-608 limits assumed): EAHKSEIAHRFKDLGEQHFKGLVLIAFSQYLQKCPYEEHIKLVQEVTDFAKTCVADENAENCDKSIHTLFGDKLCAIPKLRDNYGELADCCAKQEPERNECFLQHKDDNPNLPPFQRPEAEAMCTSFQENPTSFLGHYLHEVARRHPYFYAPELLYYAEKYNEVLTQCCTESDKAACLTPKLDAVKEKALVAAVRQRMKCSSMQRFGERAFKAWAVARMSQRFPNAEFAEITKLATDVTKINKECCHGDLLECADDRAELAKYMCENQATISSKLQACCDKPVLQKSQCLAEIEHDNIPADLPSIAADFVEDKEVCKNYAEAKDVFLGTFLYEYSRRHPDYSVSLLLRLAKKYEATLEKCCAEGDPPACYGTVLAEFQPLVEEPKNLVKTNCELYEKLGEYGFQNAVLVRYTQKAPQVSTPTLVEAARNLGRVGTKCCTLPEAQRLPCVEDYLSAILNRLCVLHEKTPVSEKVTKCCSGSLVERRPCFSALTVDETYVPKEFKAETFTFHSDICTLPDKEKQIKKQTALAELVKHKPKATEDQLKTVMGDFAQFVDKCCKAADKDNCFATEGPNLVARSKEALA
T4 sequence (P22629 37-163 limits assumed): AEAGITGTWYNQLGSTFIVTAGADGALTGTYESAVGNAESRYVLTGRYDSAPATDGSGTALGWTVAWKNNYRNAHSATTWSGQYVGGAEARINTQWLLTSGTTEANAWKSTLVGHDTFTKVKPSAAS

B1: HSA binder E1 (TRX-3 library), phage-displayed (designed binder)
chain: MVKQIESKTAFQEALDAAGDKLVVVDFSATRSENDRWNEWSGPSKMIKPFFHSLSEKYSNVIFLEVDVDDAQDVASEALIAGPFWYSPTFQFFKKGQKVGEFSGANKEKLEATINELV
notes: AGPF loop 3′ motif
binding result (mouse serum albumin): no binding
binding result (rat serum albumin): no binding

B2: CD5 binder A1 (TRX-3 library) (designed binder)
chain: MVKQIESKTAFQEALDAAGDKLVVVDFSATQWWGWIDGQWSGPSKMIKPFFHSLSEKYSNVIFLEVDVDDAQDVASEAYPLFGMAALPTFQFFKKGQKVGEFSGANKEKLEATINELV
binding result (control CD19 protein): no binding

B3: HSA binder E5 (TRX-3 library), phage-displayed (designed binder)
chain: MVKQIESKTAFQEALDAAGDKLVVVDFSATRRNERARDWWSGPSKMIKPFFHSLSEKYSNVIFLEVDVDDAQDVASEALAAGPFYLLPTFQFFKKGQKVGEFSGANKEKLEATINELV
notes: AGPF loop 3′ motif
binding result (mouse serum albumin): no binding
binding result (rat serum albumin): no binding

B4: CD5 binder A5 (TRX-3 library) (designed binder)
chain: MVKQIESKTAFQEALDAAGDKLVVVDFSATQCNTGESHDWSGPSKMIKPFFHSLSEKYSNVIFLEVDVDDAQDVASEAWSPLIMCTMPTFQFFKKGQKVGEFSGANKEKLEATINELV
binding result (control CD19 protein): no binding

B5: CD5 binder E6 (TRX-3 library), phage-displayed (designed binder)
chain: MVKQIESKTAFQEALDAAGDKLVVVDFSATNTIKHGGSRWSGPSKMIKPFFHSLSEKYSNVIFLEVDVDDAQDVASEAEKGILVSPLPTFQFFKKGQKVGEFSGANKEKLEATINELV
notes: also called E6 phage
binding result [1]: no binding

B6: E6-aerolysin fusion protein (other)
chain: MVKQIESKTAFQEALDAAGDKLVVVDFSATNTIKHGGSRWSGPSKMIKPFFHSLSEKYSNVIFLEVDVDDAQDVASEAEKGILVSPLPTFQFFKKGQKVGEFSGANKEKLEATINELVGEIPTLSALDIPDGDEVDVQWRLVHDSANFIKPTSYLAHYLGYAWVGGNHSQYVGEDMDVTRDGDGWVIRGNNDGGCDGYRCGDKTAIKVSNFAYNLDPDSFKHGDVTQSDRQLVKTVVGWAVNDSDTPQSGYDVTLRYDTATNWSKTNTYGLSEKVTTKNKFKWPLVGETELSIEIAANQSWASQNGGSTTTSLSQSVRPTVPARSKIPVKIELYKADISYPYEFKADVSYDLTLSGFLRWGGNAWYTHPDNRPNWNHTFVIGPYKDKASSIRYQWDKRYIPGEVKWWDWNWTIQQNGLSTMQNNLARVLRPVRAGITGDFSAESQFAGNIEIGAPVPLAADSKVRRARSVDGAGQGLRLEIPLDAQELSGLGFNNVSLSVTPAANQ
modifications: labelled with NHS-fluorescein for FACS (sites not given)
EC50, MTS cytotoxicity assay on CD5+ Raji cells, 48 hours [2]: 132 nM

B7: CD5 binder E10 (TRX-3 library) (designed binder)
chain: MVKQIESKTAFQEALDAAGDKLVVVDFSATKERDSAWDDWSGPSKMIKPFFHSLSEKYSNVIFLEVDVDDAQDVASEAFYWSYPSLPPTFQFFKKGQKVGEFSGANKEKLEATINELV
binding result (control CD19 protein): no binding

B8: HSA binder G5 (TRX-3 library), phage-displayed (designed binder)
chain: MVKQIESKTAFQEALDAAGDKLVVVDFSATRLRTGGHPYWSGPSKMIKPFFHSLSEKYSNVIFLEVDVDDAQDVASEAVYVSLSRHRPTFQFFKKGQKVGEFSGANKEKLEATINELV
binding result (mouse serum albumin): no binding
binding result (rat serum albumin): no binding

Reference: patent US9340584 (GENERAL HOSPITAL, dated 2016)
